Data on two molecules can be found in patent publication US20160130333A1 (published 2016).

The target in this test is histones. Briefly: ELISA.

B1: mIMMU-H4 (antibody, V domains shown)
VH: QVQLQQSGAELVRPGASVKLSCTASGFNIKDDYLHWVKQRPEQGLEWIGWIDPENGDTEYASKFQGKATITADTSSNTAYLQLSSLTSEDTAVYYCSSPLVHLRTFAYWGQGTLVTVS
VL: DIQLTQSPASLAVSLGQRATISCRASESVDSYDNSLHWFQQKPGQPPKLLIYLASNLESGVPARFSGSGSRTDFTLTIDPVEADDAATYYCQQNNEDPWTFGGGTKLEIKR
As to B1, the Kd (as a rule, the constant that tells how readily two partners part at equilibrium) was found to be 6.6 nM.

B2: cIMMU-H4 (antibody, V domains shown)
VH: QVQLQQSGAELVRPGASVKLSCTASGFNIKDDYLHWVKQRPEQGLEWIGWIDPENGDTEYASKFQGKATITADTSSNTAYLQLSSLTSEDTAVYYCSSPLVHLRTFAYWGQGTLVTVSA
VL: DIQLTQSPASLAVSLGQRATISCRASESVDSYDNSLHWFQQKPGQPPKLLIYLASNLESGVPARFSGSGSRTDFTLTIDPVEADDAATYYCQQNNEDPWTFGGGTKLEIKR
In the case of B2, the Kd came to 0.96 nM.
